# According to FireProtDB (doi:10.1021/bi9929958):
# Settings: Homo sapiens; pH 7.8; Thermal; DSC; Potassium phosphate 20 mM; reversible: yes; whole UniProt chain shown
protein,measurement,value
"Superoxide dismutase [Mn], mitochondrial wild type, P04179 (protein) MLSRAVCGTSRQLAPVLGYLGSRQKHSLPDLPYDYGALEPHINAQIMQLHHSKHHAAYVNNLNVTEEKYQEALAKGDVTAQIALQPALKFNGGGHINHSIFWTNLSPNGGGEPKGELLEAIKRDFGSFDKFKEKLTAASVGVQGSGWGWLGFNKERGHLQIAACPNQDPLQGTTGLIPLLGIDVWEHAYYLQYKNVRPDYLKAIWNVINWENVTERYMACKK",Tm,88.9 °C
